According to US20090117124A1:

How the values were obtained:
[1] = target: cynomolgus monkey IgE (in cynomolgus serum, Harlan Sera-Lab Ltd) (cynomolgus monkey); assay: capture ELISA, Test 2, Cyno 1
[2] = target: cynomolgus monkey IgE (in cynomolgus serum, Harlan Sera-Lab Ltd) (cynomolgus monkey); assay: capture ELISA, Test 1, Cyno 3
[3] = target: cynomolgus monkey IgE (in cynomolgus serum, Harlan Sera-Lab Ltd) (cynomolgus monkey); assay: capture ELISA, Test 2, Cyno 7
[4] = target: cynomolgus monkey IgE (in cynomolgus serum, Harlan Sera-Lab Ltd) (cynomolgus monkey); assay: capture ELISA, Test 1, Cyno 2
[5] = target: cynomolgus monkey IgE (in cynomolgus serum, Harlan Sera-Lab Ltd) (cynomolgus monkey); assay: capture ELISA, Test 1, Cyno 5
[6] = target: cynomolgus monkey IgE (in cynomolgus serum, Harlan Sera-Lab Ltd) (cynomolgus monkey); assay: capture ELISA, Test 1, Cyno 1
[7] = target: cynomolgus monkey IgE (in cynomolgus serum, Harlan Sera-Lab Ltd) (cynomolgus monkey); assay: capture ELISA, Test 1, Cyno 7
[8] = target: cynomolgus monkey IgE (in cynomolgus serum, Harlan Sera-Lab Ltd) (cynomolgus monkey); assay: capture ELISA, Test 2, Cyno 2
[9] = target: cynomolgus monkey IgE (in cynomolgus serum, Harlan Sera-Lab Ltd) (cynomolgus monkey); assay: capture ELISA, Test 2, Cyno 5
[10] = target: cynomolgus monkey IgE (in cynomolgus serum, Harlan Sera-Lab Ltd) (cynomolgus monkey); assay: capture ELISA, Test 2, Cyno 3

IgE concentration detected [1]: 146 ng/mL
IgE concentration detected [2]: 166 ng/mL
IgE concentration detected [3]: 0 ng/mL
IgE concentration detected [4]: 52 ng/mL
IgE concentration detected [5]: 232 ng/mL
IgE concentration detected [6]: 172 ng/mL
IgE concentration detected [7]: 0 ng/mL
IgE concentration detected [8]: 104 ng/mL
IgE concentration detected [9]: 252 ng/mL
IgE concentration detected [10]: 135 ng/mL
Substance: E25 (antibody)
